The assay addresses T1, amyloid β protein fragment 1–42 (synthetic Aβ peptide, oligomer preparation) (UniProt P05067 672-713).
T1 construct: amyloid beta 1-42, the cut product of the amyloid precursor protein; One preparation that holds monomeric and oligomeric forms, which are seen as separate bands on non-reducing SDS-PAGE; also called Aβ1–42; Aβ oligomers; source: synthetic peptide; oligomers prepared from hexafluoroisopropanol film, DMSO, Hams F-12, 4 °C for 24 h, supernatant after 14,000 x g
The experiment in a line: pull-down; glutathione beads coated with 500 ng GST0 or GST fusion protein, incubated with 100 pM Aβ oligomers in 50 mM Tris-HCl pH7.5, 5 mM MgCl2, 20 mM KCl, 500 µg/mL BSA for 1 h at RT; washed, eluted under non-reducing conditions, SDS-PAGE and Western blot with 6E10. Conditions: both partners purified. For orientation: Immunoblotting shows a protein as a band on a membrane.

Results on one molecule are retold here after article PMC9146559, “Recombinant Integrin β1 Signal Peptide Blocks Gliosis Induced by Aβ Oligomers” (International Journal of Molecular Sciences, 2022).

B1: GST-Rs recombinant fusion protein (integrin β1 signal peptide, amino acids 1–20) (domain or fragment, UniProt P05556 1-20, looked up)
chain: MNLQPIFWIGLISSVCCVFA
notes: signal peptide in the construct; integrin β1 (ITGβ1) amino acids 1-20, PCR from pCMV6-XL5-ITGB1 (Origene); The fragment was cloned through EcoRI sites, so linker residues from the vector are likely; The printed forward primer (ATG AAT TTA CAA CC) encodes M-N-L-Q-P, which fits the human cDNA; also called Rs peptide; recombinant integrin β1 signal peptide
Regarding B1, the binding result was “binds”.
